Data on 21 molecules can be found in US20140286957A1 (Teva, published 2014).

Where two headings read alike, the source gives them in different places.

Assay [1] concerns the target T1, Human CD1d/β2M (human, UniProt P15813 20-301; P61769 21-119).
T1 construct: also called hCD1d; recombinant human CD1d
The assay can be described thus: SPR, transfection supernatant.

For assay [2], the target named is T1, Human CD1d/β2M. The assay can be described thus: SPR, transfection supernatant. The source holds these as a separate data set. In general terms: Surface plasmon resonance follows binding to a sensor surface in real time, without labels.

B1: 401.11.38 (antibody, name in Kabat numbering, V domains shown)
VH: QVQLVGSGGGLVKPGRSLRLSCAASGFTFDDYAMHWVRQAPGKGLEWVATIIWNSAIIGYADSVKGRFIVSRDNAKNSLYLQMNSLRAEDMALYYCAKSMCSSSGCPDGYFDSWGQGTLVTVSS
VL: DIQMTQSPSSVSASVGDRVTITCRASQHISSWLAWYQQKPGKAPNLLIYAASSLQSGVSSRFSGSGSGTDFTLTISSLQPEDFATYYCQQANRFPLTFGGGTKLEIKR
Consider B1, for which the binding result with Human CD1d/β2M [1] is given as “no binding”.

B2: 401.11.68 (antibody, name in Kabat numbering, V domains shown)
VH: QVQLVGSGGGLVKPGRSLRLSCAASGFTFDDYAMHWVRQAPGKGLEWVATIIWNSAIIGYADSVKGRFIVSRDNAKNSLYLQMNSLRAEDMALYYCAKDMCGSSGCPDGYFDSWGQGTLVTVSS
VL: DIQMTQSPSSVSASVGDRVTITCRASQHISSWLAWYQQKPGKAPNLLIYAASSLQSGVSSRFSGSGSGTDFTLTISSLQPEDFATYYCQQANRFPLTFGGGTKLEIKR
For the molecule B2, the affinity with Human CD1d/β2M [1], expressed as Kd, was 1.17 nM.

B3: 401.11.71 (antibody, name in Kabat numbering, V domains shown)
VH: QVQLVGSGGGLVKPGRSLRLSCAASGFTFDDYAMHWVRQAPGKGLEWVATIIWNSAIIGYADSVKGRFIVSRDNAKNSLYLQMNSLRAEDMALYYCAKDMCSWSGCPDGYFDSWGQGTLVTVSS
VL: DIQMTQSPSSVSASVGDRVTITCRASQHISSWLAWYQQKPGKAPNLLIYAASSLQSGVSSRFSGSGSGTDFTLTISSLQPEDFATYYCQQANRFPLTFGGGTKLEIKR
Regarding B3, in the assay with Human CD1d/β2M [1], the dissociation constant (Kd) (in general, a measure of binding affinity in units of concentration) was less than 0.01 nM.

B4: 401.11.72 (antibody, name in Kabat numbering, V domains shown)
VH: QVQLVGSGGGLVKPGRSLRLSCAASGFTFDDYAMHWVRQAPGKGLEWVATIIWNSAIIGYADSVKGRFIVSRDNAKNSLYLQMNSLRAEDMALYYCAKDMCSLSGCPDGYFDSWGQGTLVTVSS
VL: DIQMTQSPSSVSASVGDRVTITCRASQHISSWLAWYQQKPGKAPNLLIYAASSLQSGVSSRFSGSGSGTDFTLTISSLQPEDFATYYCQQANRFPLTFGGGTKLEIKR
Take B4: binding with Human CD1d/β2M [1] was characterised by a dissociation constant (Kd) of 0.649 nM.

B5: 401.11.70 (antibody, name in Kabat numbering, V domains shown)
VH: QVQLVGSGGGLVKPGRSLRLSCAASGFTFDDYAMHWVRQAPGKGLEWVATIIWNSAIIGYADSVKGRFIVSRDNAKNSLYLQMNSLRAEDMALYYCAKDMCSTSGCPDGYFDSWGQGTLVTVSS
VL: DIQMTQSPSSVSASVGDRVTITCRASQHISSWLAWYQQKPGKAPNLLIYAASSLQSGVSSRFSGSGSGTDFTLTISSLQPEDFATYYCQQANRFPLTFGGGTKLEIKR
Turning to B5, the Kd in the assay with Human CD1d/β2M [1] is 0.549 nM.

B6: 401.11.61 (antibody, name in Kabat numbering, V domains shown)
VH: QVQLVGSGGGLVKPGRSLRLSCAASGFTFDDYAMHWVRQAPGKGLEWVATIIWNSAIIGYADSVKGRFIVSRDNAKNSLYLQMNSLRAEDMALYYCAKDMCTSSGCPDGYFDSWGQGTLVTVSS
VL: DIQMTQSPSSVSASVGDRVTITCRASQHISSWLAWYQQKPGKAPNLLIYAASSLQSGVSSRFSGSGSGTDFTLTISSLQPEDFATYYCQQANRFPLTFGGGTKLEIKR
B6 returned a Kd in the assay with Human CD1d/β2M [1] of 0.242 nM.

B7: 401.11.137 (antibody, name in Kabat numbering, V domains shown)
VH: QVQLVGSGGGLVKPGRSLRLSCAASGFTFDDYAMHWVRQAPGKGLEWVATIIWNSAIIGYADSVKGRFIVSRDNAKNSLYLQMNSLRAEDMALYYCAKDMCSSSGCPDGYFDRWGQGTLVTVSS
VL: DIQMTQSPSSVSASVGDRVTITCRASQHISSWLAWYQQKPGKAPNLLIYAASSLQSGVSSRFSGSGSGTDFTLTISSLQPEDFATYYCQQANRFPLTFGGGTKLEIKR
Take B7: binding with Human CD1d/β2M [2] was put at a Kd of 0.938 nM.

B8: 401.11.73 (antibody, name in Kabat numbering, V domains shown)
VH: QVQLVGSGGGLVKPGRSLRLSCAASGFTFDDYAMHWVRQAPGKGLEWVATIIWNSAIIGYADSVKGRFIVSRDNAKNSLYLQMNSLRAEDMALYYCAKDMCSVSGCPDGYFDSWGQGTLVTVSS
VL: DIQMTQSPSSVSASVGDRVTITCRASQHISSWLAWYQQKPGKAPNLLIYAASSLQSGVSSRFSGSGSGTDFTLTISSLQPEDFATYYCQQANRFPLTFGGGTKLEIKR
For B8, the Kd with Human CD1d/β2M [1] came out at 0.527 nM.

B9: 401.11.139 (antibody, name in Kabat numbering, V domains shown)
VH: QVQLVGSGGGLVKPGRSLRLSCAASGFTFDDYAMHWVRQAPGKGLEWVATIIWNSAIIGYADSVKGRFIVSRDNAKNSLYLQMNSLRAEDMALYYCAKDMCSSSGCPDGYFDGWGQGTLVTVSS
VL: DIQMTQSPSSVSASVGDRVTITCRASQHISSWLAWYQQKPGKAPNLLIYAASSLQSGVSSRFSGSGSGTDFTLTISSLQPEDFATYYCQQANRFPLTFGGGTKLEIKR
With B9, in the assay with Human CD1d/β2M [2], the equilibrium dissociation constant (Kd) amounted to 0.594 nM.

B10: 401.11.64 (antibody, name in Kabat numbering, V domains shown)
VH: QVQLVGSGGGLVKPGRSLRLSCAASGFTFDDYAMHWVRQAPGKGLEWVATIIWNSAIIGYADSVKGRFIVSRDNAKNSLYLQMNSLRAEDMALYYCAKDMCVSSGCPDGYFDSWGQGTLVTVSS
VL: DIQMTQSPSSVSASVGDRVTITCRASQHISSWLAWYQQKPGKAPNLLIYAASSLQSGVSSRFSGSGSGTDFTLTISSLQPEDFATYYCQQANRFPLTFGGGTKLEIKR
Regarding B10, in the assay with Human CD1d/β2M [1], binding was put at a Kd of 0.23 nM.

B11: 401.11.50 (antibody, name in Kabat numbering, V domains shown)
VH: QVQLVGSGGGLVKPGRSLRLSCAASGFTFDDYAMHWVRQAPGKGLEWVATIIWNSAIIGYADSVKGRFIVSRDNAKNSLYLQMNSLRAEDMALYYCAKDGCSSSGCPDGYFDSWGQGTLVTVSS
VL: DIQMTQSPSSVSASVGDRVTITCRASQHISSWLAWYQQKPGKAPNLLIYAASSLQSGVSSRFSGSGSGTDFTLTISSLQPEDFATYYCQQANRFPLTFGGGTKLEIKR
Consider B11, for which binding with Human CD1d/β2M [1] was put at a Kd of 0.187 nM. The Kd values of the last two molecules are within 1.5-fold of each other.

B12: 401.11.44 (antibody, name in Kabat numbering, V domains shown)
VH: QVQLVGSGGGLVKPGRSLRLSCAASGFTFDDYAMHWVRQAPGKGLEWVATIIWNSAIIGYADSVKGRFIVSRDNAKNSLYLQMNSLRAEDMALYYCAKDKCSSSGCPDGYFDSWGQGTLVTVSS
VL: DIQMTQSPSSVSASVGDRVTITCRASQHISSWLAWYQQKPGKAPNLLIYAASSLQSGVSSRFSGSGSGTDFTLTISSLQPEDFATYYCQQANRFPLTFGGGTKLEIKR
The molecule B12 gave a Kd with Human CD1d/β2M [1] of 0.431 nM. This Kd lies about 2.3-fold higher than the previous one.

B13: 401.11.138 (antibody, name in Kabat numbering, V domains shown)
VH: QVQLVGSGGGLVKPGRSLRLSCAASGFTFDDYAMHWVRQAPGKGLEWVATIIWNSAIIGYADSVKGRFIVSRDNAKNSLYLQMNSLRAEDMALYYCAKDMCSSSGCPDGYFDYWGQGTLVTVSS
VL: DIQMTQSPSSVSASVGDRVTITCRASQHISSWLAWYQQKPGKAPNLLIYAASSLQSGVSSRFSGSGSGTDFTLTISSLQPEDFATYYCQQANRFPLTFGGGTKLEIKR
With B13, the Kd with Human CD1d/β2M [2] turned out to be 0.171 nM. In other words, the sub-nanomolar range.

B14: 401.11.69 (antibody, name in Kabat numbering, V domains shown)
VH: QVQLVGSGGGLVKPGRSLRLSCAASGFTFDDYAMHWVRQAPGKGLEWVATIIWNSAIIGYADSVKGRFIVSRDNAKNSLYLQMNSLRAEDMALYYCAKDMCSDSGCPDGYFDSWGQGTLVTVSS
VL: DIQMTQSPSSVSASVGDRVTITCRASQHISSWLAWYQQKPGKAPNLLIYAASSLQSGVSSRFSGSGSGTDFTLTISSLQPEDFATYYCQQANRFPLTFGGGTKLEIKR
As to B14, the Kd with Human CD1d/β2M [1] came out at 0.144 nM. That is a sub-nanomolar value.

B15: 401.11.63 (antibody, name in Kabat numbering, V domains shown)
VH: QVQLVGSGGGLVKPGRSLRLSCAASGFTFDDYAMHWVRQAPGKGLEWVATIIWNSAIIGYADSVKGRFIVSRDNAKNSLYLQMNSLRAEDMALYYCAKDMCLSSGCPDGYFDSWGQGTLVTVSS
VL: DIQMTQSPSSVSASVGDRVTITCRASQHISSWLAWYQQKPGKAPNLLIYAASSLQSGVSSRFSGSGSGTDFTLTISSLQPEDFATYYCQQANRFPLTFGGGTKLEIKR
Turning to B15, the affinity with Human CD1d/β2M [1], expressed as Kd, was 0.189 nM.

B16: 401.11.46 (antibody, name in Kabat numbering, V domains shown)
VH: QVQLVGSGGGLVKPGRSLRLSCAASGFTFDDYAMHWVRQAPGKGLEWVATIIWNSAIIGYADSVKGRFIVSRDNAKNSLYLQMNSLRAEDMALYYCAKDFCSSSGCPDGYFDSWGQGTLVTVSS
VL: DIQMTQSPSSVSASVGDRVTITCRASQHISSWLAWYQQKPGKAPNLLIYAASSLQSGVSSRFSGSGSGTDFTLTISSLQPEDFATYYCQQANRFPLTFGGGTKLEIKR
B16 gave an equilibrium dissociation constant (Kd) with Human CD1d/β2M [1] of 0.303 nM.

B17: 401.11.67 (antibody, name in Kabat numbering, V domains shown)
VH: QVQLVGSGGGLVKPGRSLRLSCAASGFTFDDYAMHWVRQAPGKGLEWVATIIWNSAIIGYADSVKGRFIVSRDNAKNSLYLQMNSLRAEDMALYYCAKDMCYSSGCPDGYFDSWGQGTLVTVSS
VL: DIQMTQSPSSVSASVGDRVTITCRASQHISSWLAWYQQKPGKAPNLLIYAASSLQSGVSSRFSGSGSGTDFTLTISSLQPEDFATYYCQQANRFPLTFGGGTKLEIKR
The molecule B17 registered a Kd with Human CD1d/β2M [1] of 0.0485 nM. Compared with the last molecule, the Kd is about 6.2-fold lower.

B18: 401.11.66 (antibody, name in Kabat numbering, V domains shown)
VH: QVQLVGSGGGLVKPGRSLRLSCAASGFTFDDYAMHWVRQAPGKGLEWVATIIWNSAIIGYADSVKGRFIVSRDNAKNSLYLQMNSLRAEDMALYYCAKDMCRSSGCPDGYFDSWGQGTLVTVSS
VL: DIQMTQSPSSVSASVGDRVTITCRASQHISSWLAWYQQKPGKAPNLLIYAASSLQSGVSSRFSGSGSGTDFTLTISSLQPEDFATYYCQQANRFPLTFGGGTKLEIKR
As for B18, the Kd in the assay with Human CD1d/β2M [1] amounted to 0.156 nM.

B19: 401.11.65 (antibody, name in Kabat numbering, V domains shown)
VH: QVQLVGSGGGLVKPGRSLRLSCAASGFTFDDYAMHWVRQAPGKGLEWVATIIWNSAIIGYADSVKGRFIVSRDNAKNSLYLQMNSLRAEDMALYYCAKDMCKSSGCPDGYFDSWGQGTLVTVSS
VL: DIQMTQSPSSVSASVGDRVTITCRASQHISSWLAWYQQKPGKAPNLLIYAASSLQSGVSSRFSGSGSGTDFTLTISSLQPEDFATYYCQQANRFPLTFGGGTKLEIKR
In the assay with Human CD1d/β2M [1], B19 returned a dissociation constant Kd of 1.67 nM.

B20: 401.11.49 (antibody, name in Kabat numbering, V domains shown)
VH: QVQLVGSGGGLVKPGRSLRLSCAASGFTFDDYAMHWVRQAPGKGLEWVATIIWNSAIIGYADSVKGRFIVSRDNAKNSLYLQMNSLRAEDMALYYCAKDSCSSSGCPDGYFDSWGQGTLVTVSS
VL: DIQMTQSPSSVSASVGDRVTITCRASQHISSWLAWYQQKPGKAPNLLIYAASSLQSGVSSRFSGSGSGTDFTLTISSLQPEDFATYYCQQANRFPLTFGGGTKLEIKR
Take B20: the dissociation constant (Kd) with Human CD1d/β2M [1] was found to be 0.401 nM.

B21: 401.11.45 (antibody, name in Kabat numbering, V domains shown)
VH: QVQLVGSGGGLVKPGRSLRLSCAASGFTFDDYAMHWVRQAPGKGLEWVATIIWNSAIIGYADSVKGRFIVSRDNAKNSLYLQMNSLRAEDMALYYCAKDRCSSSGCPDGYFDSWGQGTLVTVSS
VL: DIQMTQSPSSVSASVGDRVTITCRASQHISSWLAWYQQKPGKAPNLLIYAASSLQSGVSSRFSGSGSGTDFTLTISSLQPEDFATYYCQQANRFPLTFGGGTKLEIKR
With B21, the Kd in the assay with Human CD1d/β2M [1] was 0.249 nM.
